Data on one substance can be found in article PMC7058448.

In the test the target is gp120-gp41 protomer of cleaved gp160, HIV-1 isolate 92UG037.8 (HIV-1 isolate 92UG037.8 (clade A)). In words: cryo-EM structure.

As a reminder, the stoichiometry N is the number of molecules, sites or subunits per partner or assembly.

As to “gp120-gp41 protomer of cleaved gp160, HIV-1 isolate 92UG037.8 (complex)”, the stoichiometry N was found to be 3.
